Results taken from patent US20230080534A1 (SHANGHAI BIOTROY BIOTECHNIQUE, published 2023).
Residue numbers refer to the chain shown, from its start. No end group written: not given here.

Columns and labels:
SEMG2(442-453) fragment = molecular target: T1, SEMG2(442-453) fragment (human); assay: ELISA, immobilized antigen SEMG2 (442-453)
T1 peptide: IHGKSQNQVTIP
Source text: (§1) To clearly distinguish the binding epitopes of blocking antibodies (i.e., antibodies that can inhibit the binding between SEMG2 and CD27) and non-blocking antibodies, a corresponding ELISA analysis method was established. […] Anti-mouse or anti-rabbit secondary antibodies were then used to detect the corresponding bound antibodies.

QIEKLVEGKSAIQ = molecular target: T2, QIEKLVEGKSAIQ (not fully specified); assay: ELISA, immobilized peptide QIEKLVEGKSAIQ
T2 construct: alanine at this position
T2 peptide: QIEKLVEGKSAIQ
Source text: (§2) FIG. 20 depicts the value detected by ELISA, i.e., OD₄₅₀ absorbance. […] This experiment is used to determine the precise amino acid epitopes that different monoclonal antibodies bind to, and the relative importance of each amino acid to the binding antibody.

[1] = molecular target: T3, SEMG2(497-509) polypeptide QIEKLVEGKSQIQ (human); assay: ELISA, immobilized peptide QIEKLVEGKSQIQ
T3 peptide: QIEKLVEGKSQIQ
Source text: as §2

QIEKLAEGKSQIQ = molecular target: T4, QIEKLAEGKSQIQ (not fully specified); assay: ELISA, immobilized peptide QIEKLAEGKSQIQ
T4 construct: member of the group m41; the text speaks of glycine substitution, the sheet prints alanine
T4 peptide: QIEKLAEGKSQIQ
Source text: as §2

QIEKLVEGKSQAQ = molecular target: T5, QIEKLVEGKSQAQ (not fully specified); assay: ELISA, immobilized peptide QIEKLVEGKSQAQ
T5 construct: member of the group m41; the text speaks of glycine substitution, the sheet prints alanine
T5 peptide: QIEKLVEGKSQAQ
Source text: as §2

AIEKLVEGKSQIQ = molecular target: T6, AIEKLVEGKSQIQ (not fully specified); assay: ELISA, immobilized peptide AIEKLVEGKSQIQ
T6 construct: member of the group m41; the text speaks of glycine substitution, the sheet prints alanine
T6 peptide: AIEKLVEGKSQIQ
Source text: as §2

[2] = molecular target: T3, SEMG2(497-509) polypeptide QIEKLVEGKSQIQ; assay: ELISA, immobilized antigen SEMG2 (497-509)
Source text: as §1

QIEALVEGKSQIQ = molecular target: T7, QIEALVEGKSQIQ (not fully specified); assay: ELISA, immobilized peptide QIEALVEGKSQIQ
T7 construct: member of the group m41; the text speaks of glycine substitution, the sheet prints alanine
T7 peptide: QIEALVEGKSQIQ
Source text: as §2

QIEKLVEAKSQIQ = molecular target: T8, QIEKLVEAKSQIQ; assay: ELISA, immobilized peptide QIEKLVEAKSQIQ
T8 construct: member of the group m41; position 504 is glycine in SEMG2 and the sheet prints alanine there
T8 peptide: QIEKLVEAKSQIQ
Source text: as §2

QIEKLVEGKSQIA = molecular target: T9, QIEKLVEGKSQIA (not fully specified); assay: ELISA, immobilized peptide QIEKLVEGKSQIA
T9 construct: alanine at this position
T9 peptide: QIEKLVEGKSQIA
Source text: as §2

[3] = molecular target: T10, human SEMG2 full-length protein (human, UniProt Q02383 24-582, limits assumed); assay: biolayer interferometry (ForteBio Blitz or Gator)
T10 construct: also called SEMG2 protein; semenogelin 2
T10 sequence: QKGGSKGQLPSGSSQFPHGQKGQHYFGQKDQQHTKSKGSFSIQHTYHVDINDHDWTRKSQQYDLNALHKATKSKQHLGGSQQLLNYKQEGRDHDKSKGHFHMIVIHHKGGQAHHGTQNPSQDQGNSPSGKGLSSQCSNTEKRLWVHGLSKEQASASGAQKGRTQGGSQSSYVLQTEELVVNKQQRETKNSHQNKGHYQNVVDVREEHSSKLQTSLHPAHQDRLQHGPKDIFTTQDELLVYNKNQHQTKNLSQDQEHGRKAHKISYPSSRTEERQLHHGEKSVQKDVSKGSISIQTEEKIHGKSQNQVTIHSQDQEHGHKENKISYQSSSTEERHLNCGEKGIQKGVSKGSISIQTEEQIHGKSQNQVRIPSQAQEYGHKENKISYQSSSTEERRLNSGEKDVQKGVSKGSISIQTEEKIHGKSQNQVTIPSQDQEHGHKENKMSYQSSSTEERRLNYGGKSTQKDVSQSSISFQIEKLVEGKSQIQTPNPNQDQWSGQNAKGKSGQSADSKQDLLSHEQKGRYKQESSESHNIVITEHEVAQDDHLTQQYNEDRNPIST
Experimental: The equilibrium dissociation constant (KD) of the antibody of the present invention binding to human SEMG2 was determined by biolayer interferometry (ForteBio Bltz or Gator instrument). […] 100 μl of SD buffer, antibody and SEMG2 were added to a 96-well black polystyrene half area microplate, respectively. Select the sensor location based on the sample location layout. KD values were analyzed using molecular interaction analysis software. In the experiments of the assays, the affinity constants of murine monoclonal antibodies and human antibodies H88-67, H88-93 and H88-96 are shown in Table 8, and the affinity and dissociation curves of SEMG2 and corresponding proteins are shown in FIG. 25.

[4] = molecular target: T11, BSA-conjugated human SEMG2 (497-509) polypeptide (human, also: coupled to BSA, site not given here); assay: ELISA on BSA-SEMG2 (497-509), antibody titrated
T11 peptide: QIEKLVEGKSQIQ

QIEKLVEGKAQIQ = molecular target: T12, QIEKLVEGKAQIQ (not fully specified); assay: ELISA, immobilized peptide QIEKLVEGKAQIQ
T12 construct: alanine at this position
T12 peptide: QIEKLVEGKAQIQ
Source text: as §2

QAEKLVEGKSQIQ = molecular target: T13, QAEKLVEGKSQIQ (not fully specified); assay: ELISA, immobilized peptide QAEKLVEGKSQIQ
T13 construct: member of the group m41; the text speaks of glycine substitution, the sheet prints alanine
T13 peptide: QAEKLVEGKSQIQ
Source text: as §2

SEMG2(354-403) fragment = molecular target: T14, SEMG2(354-403) fragment (human); assay: ELISA, immobilized antigen SEMG2 (354-403)
T14 peptide: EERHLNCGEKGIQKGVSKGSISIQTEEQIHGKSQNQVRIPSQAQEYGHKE
Source text: as §1

[5] = molecular target: T10, human SEMG2 full-length protein; assay: ELISA, immobilized antigen SEMG2 (1-582)
Source text: as §1

QIAKLVEGKSQIQ = molecular target: T15, QIAKLVEGKSQIQ (not fully specified); assay: ELISA, immobilized peptide QIAKLVEGKSQIQ
T15 construct: member of the group m41; the text speaks of glycine substitution, the sheet prints alanine
T15 peptide: QIAKLVEGKSQIQ

QIEKLVEGASQIQ = molecular target: T16, QIEKLVEGASQIQ (not fully specified); assay: ELISA, immobilized peptide QIEKLVEGASQIQ
T16 construct: member of the group m41; the text speaks of glycine substitution, the sheet prints alanine
T16 peptide: QIEKLVEGASQIQ
Source text: as §2

QIEKAVEGKSQIQ = molecular target: T17, QIEKAVEGKSQIQ (not fully specified); assay: ELISA, immobilized peptide QIEKAVEGKSQIQ
T17 construct: alanine at this position
T17 peptide: QIEKAVEGKSQIQ
Source text: as §2

[6] = molecular target: T10, human SEMG2 full-length protein; assay: ELISA, plate coated with SEMG2 protein, anti-mouse secondary antibody; the EC50 table prints no unit, the axis is log (antibody concentration, nM)
QIEKLVAGKSQIQ = molecular target: T18, QIEKLVAGKSQIQ (not fully specified); assay: ELISA, immobilized peptide QIEKLVAGKSQIQ
T18 construct: member of the group m41; the text speaks of glycine substitution, the sheet prints alanine
T18 peptide: QIEKLVAGKSQIQ
Source text: as §2
To further precisely define the exact epitopes (specific to the level of single amino acid) to which blocking antibodies MM02, MM05, MM07, MM08, MM13, MM14 bind, corresponding ELISA analysis method was established. […] Anti-mouse or anti-rabbit secondary antibodies were then used to detect the corresponding bound antibodies.

SEMG2(563-574) fragment = molecular target: T19, SEMG2(563-574) fragment (human); assay: ELISA, immobilized antigen SEMG2 (563-574)
T19 peptide: VAQDDHLTQQYN
Source text: as §1

[7] = molecular target: T10, human SEMG2 full-length protein; assay: ELISA on SEMG2 protein; the EC50 table prints no unit, the axis is log (antibody concentration, nM)
[8] = molecular target: T11, BSA-conjugated human SEMG2 (497-509) …; assay: ELISA on BSA-S2 (497-509); curve without upper plateau; the EC50 table prints no unit, the axis is log (antibody concentration, nM)
[9] = molecular target: T10, human SEMG2 full-length protein; assay: ELISA on SEMG2; the EC50 table prints no unit, the axis is log (antibody concentration, nM)
[10] = molecular target: T10, human SEMG2 full-length protein; assay: as above; remark: listed apart in the source
[11] = molecular target: T11, BSA-conjugated human SEMG2 (497-509) …; assay: ELISA on BSA-S2 (497-509); the EC50 table prints no unit, the axis is log (antibody concentration, nM)
[12] = molecular target: T11, BSA-conjugated human SEMG2 (497-509) …; assay: ELISA (FIG. 21B-D)
[13] = molecular target: T10, human SEMG2 full-length protein; assay: ELISA (FIG. 21B-D)
[14] = molecular target: T10, human SEMG2 full-length protein; assay: ELISA on SEMG2; the EC50 table prints no unit, the axis is log (antibody concentration, nM); remark: listed apart in the source

B1: MM02 (antibody, IgG2b, V domains shown)
VH: QIQLVQSGPEVKKPGETVRISCKASGYTLTTAGIQWVQKMPGKGLKWIGWINTHSGVPEYAEDFKGRFAFFLETSASTAYLQISNLKNEDTATYFCARLGLLGYWGQGTTLTVSS
VL: DILLTQSPAILSVSPGERVSFSCRASQSIGTTIHWYQQRTNGSPRLLIKYASESISGIPSRFSGSGSGTDFTLSINSVESEDIADYYCQQSNSWPWTFGGGTKLEIKR
A450 absorbance (SEMG2(442-453) fragment): 0.001
binding result (SEMG2(442-453) fragment): no binding
OD450 absorbance (QIEKLVEGKSAIQ): 1.26
OD450 absorbance [1]: 1.26
OD450 absorbance (QIEKLAEGKSQIQ): 0.928
OD450 absorbance (QIEKLVEGKSQAQ): 0.894
OD450 absorbance (AIEKLVEGKSQIQ): 0.45
A450 absorbance [2]: 1.18
OD450 absorbance (QIEALVEGKSQIQ): 0.47
OD450 absorbance (QIEKLVEAKSQIQ): 0.766
OD450 absorbance (QIEKLVEGKSQIA): 1.15
Kd [3]: 1.33 nM
EC50 (read off the curve) [4]: ~4 ng/mL
OD450 absorbance (QIEKLVEGKAQIQ): 0.173
OD450 absorbance (QAEKLVEGKSQIQ): 0.541
A450 absorbance (SEMG2(354-403) fragment): 0.004
binding result (SEMG2(354-403) fragment): no binding
A450 absorbance [5]: 1.2
OD450 absorbance (QIAKLVEGKSQIQ): 0.788
OD450 absorbance (QIEKLVEGASQIQ): 0.949
OD450 absorbance (QIEKAVEGKSQIQ): 0.051
EC50 [6]: 0.176 nM
OD450 absorbance (QIEKLVAGKSQIQ): 0.48
A450 absorbance (SEMG2(563-574) fragment): 0.005
binding result (SEMG2(563-574) fragment): no binding

B2: MM05V4V2 (antibody, V domains shown)
VH: QVQLVQSGAEVKKPGASVKVSCKASGYTFTSYWMNWVRQAPGQGLEWVGMIDPSDSETHYAQKFQGRVTITADKSTSTVYMELSSLRSEDTAVYYCARYLGGKEGSFDYWGQGTLVTVSS
VL: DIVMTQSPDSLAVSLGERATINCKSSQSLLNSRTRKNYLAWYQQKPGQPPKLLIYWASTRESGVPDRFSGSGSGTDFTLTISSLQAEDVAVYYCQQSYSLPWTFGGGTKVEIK
notes: humanized MM05 antibody, one member of the group m49
EC50 [7]: 0.18 nM

B3: MM05V3V2 (antibody, V domains shown)
VH: B2 VH with A72V
VL: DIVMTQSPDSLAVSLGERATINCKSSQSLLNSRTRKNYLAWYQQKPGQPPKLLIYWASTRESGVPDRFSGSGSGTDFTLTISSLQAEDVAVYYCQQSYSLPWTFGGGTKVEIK
notes: as for B2
EC50 [7]: 0.092 nM

B4: MM05V4V1 (antibody, V domains shown)
VH: B2 VH
VL: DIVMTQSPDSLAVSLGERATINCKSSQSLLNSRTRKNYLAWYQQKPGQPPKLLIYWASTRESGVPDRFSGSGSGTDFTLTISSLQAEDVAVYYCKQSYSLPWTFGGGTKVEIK
notes: as for B2
EC50 [7]: 0.123 nM

B5: H88-67 (antibody, V domains shown)
VH: QVQLLESGGGVVQPGRSLRLSCAASGFTFSSYAMHWVRQAPGKGLEWVAVISYDGSNKYYADSVKGRFTISRDNSKNTLYLQMNSLRAEDTAVYYCARMDGSGSPDYWGQGTLVTVSS
VL: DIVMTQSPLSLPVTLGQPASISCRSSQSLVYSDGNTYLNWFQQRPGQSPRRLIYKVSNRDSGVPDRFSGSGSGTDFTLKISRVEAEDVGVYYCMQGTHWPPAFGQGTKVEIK
notes: Fully human full-length antibody built from a phage Fab
EC50 [8]: 57.5 nM
Kd [3]: 28.4 nM
EC50 [9]: 2.13 nM
EC50 [10]: 0.863 nM

B6: 96-10R-10 (antibody, V domains shown)
VH: QVQLLESGGGLVQPGGSLRLSCSASGFTFSSRAMHWVRQAPGKGLEYVSAISSNGGSTYYADSVKGRFTISRDNSKNTLYLQMSSLRAEDTAVYYCVIEGGSTGSTTSGAFDIWGQGTMVTVSS
VL: DIQMIQSPPSVSASVGDTVTIACRANQGIDSWLAWYQQKPGRAPKLLIYSASRLQSGVPSRFSGGGSGTDFALTISNLQPEDFATYYCQQALSLPITFGQGTRLEIK
EC50 [11]: 3.36 nM
fold higher affinity than the parent antibody (H88-96) [12]: > 10 fold
fold higher affinity than the parent antibody (H88-96) [13]: > 10 fold
EC50 [14]: 0.241 nM

B7: 96-10V-10 (antibody, V domains shown)
VH: B6 VH with R32Y, T107V
VL: B6 VL
EC50 [8]: 32.2 nM
fold higher affinity than the parent antibody (H88-96) [12]: > 10 fold
fold higher affinity than the parent antibody (H88-96) [13]: > 10 fold
EC50 [14]: 0.358 nM

B8: H88-96 (antibody, V domains shown)
VH: B6 VH with R32Y, G104T, S105G
VL: B6 VL
notes: as for B5
EC50 [8]: 95.7 nM
Kd [3]: 14 nM
EC50 [10]: 9.3 nM
EC50 [14]: 14 nM
